What was measured:
NONO full-length = target: T1, NONO full-length (UniProt Q15233 1-471); assay: EMSA; annealed with 100 mM KCl; complex retained in wells; NONO(53-312) EMSA: 20 mM HEPES pH 7.5, 5.7 mM Tris-HCl, 113 mM KCl, 10% glycerol, 62 mM L-proline, 1% EMPIGEN BB, 0.12 mM EDTA, 4 C 1 h, 10 nM RNA; full-length: 20 mM HEPES pH 7.4, 11 mM Tris, 105 mM KCl, 14% glycerol, 40 mM glycine, 0.2 mM EDTA, 0.5 mM DTT, 0.5% BSA, 25 C; pulldown: 10 mM HEPES pH 7.0, 200 mM KCl, 1% Triton X-100, 1 mM MgCl2, 1 mM DTT, 4 C, …; conditions: protein: commercial; tags: MYC/DDK; chain copies: 2; label: 3' Cy5; intramolecular G4, annealed with 100 mM KCl
T1 sequence: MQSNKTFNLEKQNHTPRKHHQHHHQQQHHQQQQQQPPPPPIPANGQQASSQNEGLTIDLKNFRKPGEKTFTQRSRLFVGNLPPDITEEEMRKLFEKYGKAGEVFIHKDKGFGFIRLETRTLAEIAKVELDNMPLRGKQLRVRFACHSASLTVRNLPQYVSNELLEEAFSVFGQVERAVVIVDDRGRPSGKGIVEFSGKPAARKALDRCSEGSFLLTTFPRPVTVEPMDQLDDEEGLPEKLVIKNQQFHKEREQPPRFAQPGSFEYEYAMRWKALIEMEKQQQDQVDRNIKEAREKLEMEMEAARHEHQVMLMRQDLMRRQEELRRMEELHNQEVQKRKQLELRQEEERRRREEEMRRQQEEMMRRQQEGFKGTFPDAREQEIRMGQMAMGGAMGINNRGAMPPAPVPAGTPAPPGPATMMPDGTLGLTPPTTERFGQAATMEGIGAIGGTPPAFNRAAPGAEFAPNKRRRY

NONO(53-312) [1] = target: T2, NONO(53-312) (UniProt Q15233 53-312); assay: EMSA; annealed with 100 mM KCl; NONO(53-312) EMSA: 20 mM HEPES pH 7.5, 5.7 mM Tris-HCl, 113 mM KCl, 10% glycerol, 62 mM L-proline, 1% EMPIGEN BB, 0.12 mM EDTA, 4 C 1 h, 10 nM RNA; full-length: 20 mM HEPES pH 7.4, 11 mM Tris, 105 mM KCl, 14% glycerol, 40 mM glycine, 0.2 mM EDTA, 0.5 mM DTT, 0.5% BSA, 25 C; pulldown: 10 mM HEPES pH 7.0, 200 mM KCl, 1% Triton X-100, 1 mM MgCl2, 1 mM DTT, 4 C, washes to 1.6 M KCl; conditions: protein: recombinant; tags: His tag removed by TEV; chain copies: 2; label: 3' Cy5; intramolecular G4, annealed with 100 mM KCl
T2 sequence: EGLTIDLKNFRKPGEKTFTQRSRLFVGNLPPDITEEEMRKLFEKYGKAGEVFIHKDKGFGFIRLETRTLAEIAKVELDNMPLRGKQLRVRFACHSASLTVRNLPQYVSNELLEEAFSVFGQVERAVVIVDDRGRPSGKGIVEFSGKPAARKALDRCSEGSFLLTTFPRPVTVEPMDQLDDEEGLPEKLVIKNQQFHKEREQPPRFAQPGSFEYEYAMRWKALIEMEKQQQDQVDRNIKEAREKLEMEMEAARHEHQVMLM

NONO(53-312) [2] = target: T2, NONO(53-312); assay: competition; vs labelled NEAT1_22619 G4, 1-200x excess; no significant competition; NONO(53-312) EMSA: 20 mM HEPES pH 7.5, 5.7 mM Tris-HCl, 113 mM KCl, 10% glycerol, 62 mM L-proline, 1% EMPIGEN BB, 0.12 mM EDTA, 4 C 1 h, 10 nM RNA; full-length: 20 mM HEPES pH 7.4, 11 mM Tris, 105 mM KCl, 14% glycerol, 40 mM glycine, 0.2 mM EDTA, 0.5 mM DTT, 0.5% BSA, 25 C; pulldown: 10 mM HEPES pH 7.0, 200 mM KCl, 1% Triton X-100, 1 …; conditions: protein: recombinant; tags: His tag removed by TEV; chain copies: 2; label: none; annealed with 100 mM KCl
NONO(53-312) [3] = target: T2, NONO(53-312); assay: competition; vs labelled NEAT1_22619 G4, 1-200x excess; NONO(53-312) EMSA: 20 mM HEPES pH 7.5, 5.7 mM Tris-HCl, 113 mM KCl, 10% glycerol, 62 mM L-proline, 1% EMPIGEN BB, 0.12 mM EDTA, 4 C 1 h, 10 nM RNA; full-length: 20 mM HEPES pH 7.4, 11 mM Tris, 105 mM KCl, 14% glycerol, 40 mM glycine, 0.2 mM EDTA, 0.5 mM DTT, 0.5% BSA, 25 C; pulldown: 10 mM HEPES pH 7.0, 200 mM KCl, 1% Triton X-100, 1 mM MgCl2, 1 mM DTT, 4 C, …; conditions: protein: recombinant; tags: His tag removed by TEV; chain copies: 2; label: none; intramolecular G4

B1: NEAT1_22619 G-quadruplex (structured_RNA)
RNA: GGGAGGGAGGGAGGG
- binding result (NONO full-length): binds
- binding result (NONO(53-312) [1]): binds

B2: (GGGGCC)4 G-quadruplex (structured_RNA)
RNA: GGGGCCGGGGCCGGGGCCGGGGCC
- binding result (NONO(53-312) [1]): binds

B3: 5'-Splice Site RNA (ssRNA)
RNA: AAAAAGGUAAG
- binding result (NONO(53-312) [2]): no binding

B4: (GGGGCC)4 G-quadruplex competitor (structured_RNA)
RNA: GGGGCCGGGGCCGGGGCCGGGGCC
- binding result (NONO(53-312) [3]): binds

B5: NEAT1_22619 G-quadruplex competitor (structured_RNA)
RNA: GGGAGGGAGGGAGGG
- binding result (NONO(53-312) [3]): binds

Source: paper PMC7367201, “G-quadruplexes offer a conserved structural motif for NONO recruitment to NEAT1 architectural lncRNA”
